Data taken from the nanobody polyreactivity screen of Harvey et al. (2022).

Experiment: yeast display, Sf9 membrane polyspecificity reagent, FACS + sequencing; frameworks hold sequencing errors
How it was run: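 Sorting gates, low and high (top ~1%), were placed on anti-HA fluorescence to track expression and on streptavidin fluorescence to track reagent binding. A clone's polyreactivity label is taken from the gate it came out of. The reagent was 10% biotinylated, detergent-solubilized Sf9 membrane, applied for 1 hour at 4 °C to galactose-induced yeast display cells.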

Sequence	polyreactivity (PSR sort gate)
QVQLVESGGGLVQAGGSLRLSCAAYGSTFNYKAMAWYRQAQGKERELVATITTSGGSTYYADSVKGRFTISRDNAKNTVYLQMNSLKPEDTAVYYCAARYPWSVYRIYGAHYDYWGQGTLVTVSS	low polyreactivity
QVQLVESVGGLVQAGGSLRLSCAASGSTFRYNAMGWYRQAPGKERELVATISSDGITYYADSVNGRFTISRDNAKNTVYLQMNRLKPEDTAVYYCAASYAGGFDYWGQGTQVTVSS	high polyreactivity
QVQLVESVVGLVQAGRSLRLSCAASGYTFWQYAMGWYRQAPGKERELVATITSRGGSTYYADSVKGRFTISRDTAKNSVYFQMNSLKPEDTAVYYCAARVYYPSTSNAAYGYCGQGTQVTVSS	high polyreactivity
QVQLVESGGGLVQAGGSLRLSCAASAWYAMGWYRQAPGKEREFVAAITFSGSSTYYADSVKGRFTISRDNAKNTVYLQMNSLKPEDTAVYYCNADWWEWGQGTQVTVSS	low polyreactivity
QVQLVESGGCLVQAGGSLRLSCAASGSTFDGNAMGWYRQAPGKERELVATINSGSSTTYADSVKGRFTISRDNAKNTVYLQMNSLKPEDTAVYYCNVDSGSDSLVYSVRYNYWGQGTQVTVSS	low polyreactivity
QVQIVESGGGLVQAGGSLRLSCADSGRIFYLYDMGWYRQAPGKERELVATISCSGGSTYYADSVMGRFTISRDNAKNTVYLQMNSLKPEDTALYYCAAVSVSSWYDYWGQGTQVTVSS	low polyreactivity
QVQLQESGGCLVLAGGSLRLSCAASGYIFDTCPMGWYRQAPGKEREFVASIDHGSNTYYADSVKGRFTISRDSAKNTVYLQMNSLKPEDTAVYYCAVRDDGSYTYGNWGQGTQVTVSS	high polyreactivity
QVQLVESGGGLVQAGGSLRLSCAASGSTFYYYAMGWYRQAPGKEREFVAAITWSGGSTYYADSVKGRFTISRDNAKNTVYLQMNSLKPEDTAVYYCAKDQRYYYYGGGDYWGQGTQVTVSS	low polyreactivity
QVQLVESGGGLVEAGGSLRLSCAASGSTFRWYAMGWYRQAPGKERELVAAISRSGASTYDSDSVKGRFTISRDNAKNTVYLQMNSLKPEDTAVYYCAAKQRTKGDYWRQGTQVTVSS	high polyreactivity
QVQLVESGGGLVQAGGSLRLSCAASGGTFTPYDMGWYRQAPGKERELVASITGSGGSTYYADSVKGRFTISRGNAKNTVYLQMNSLKPEDTAVYYCAAQGYWTYWPYLLRLYDYWGQGTQVTVSS	low polyreactivity
QVQLVESGGGLVQAGGSLRLSCAASGFTFYPYTMGWYRQAPGKERELVAAISSSGGSTYYADSVKGRFTISRDNAKNTVYLQMNSLKPEDTAVYYCNKYQRNWFSRAPMDYWGQGTQVTVSS	high polyreactivity
QVHLVESGGGLDQAGGSLRLSCAASGRTFKSYTMGWYRQAPGKEREFVAAISSRGGNTYYADSVKGRFTISRDNAKNTVYLQMNSLKPEDTAVYYCAAESSYWSFPTYDYWGQGTQVTVSS	high polyreactivity
QVQLVESGGGLVQAGCSLRLSCAAPGFTLKRYAMGWYRQAPGKERELVAAISRTGGSTYHADSVKGRFTITRDNAKNTVYLQMNSLKPEVTAVYYCAAATSPGIYDHWGQGTQLTVSS	high polyreactivity
QVQLVESGGGLVQAGGSLRLSCAASGSTRLYAMGWYRQAPGKERELVAAIRSSGSSTYYADSVKGRFTISRDNAKNTVYLQMNSLKPEDTAVYYCNADRIRKGWRYDYWGQGTQVTVSS	high polyreactivity
QVQLVESGGGLVQAEGSLRLSCAASGRTSVLYAMGWNRQAPGKEREFVAAITWNSGSTYYADSVKGRFTISRDNAKNTVYIQMTRLKPEDTAVYYCNADYYFSSYRSTYDYWGQGTQVTVSS	low polyreactivity
QVQLVESGGGLVQAGGSLRLSCAASGFIFFAYAMGWYRQAPGKERELVAAISSSGTRTYYADSVKGRFTISRDNAKNTVYLQMNSLKPEDTAVYYCARYIPVYTREREYNYWGQGTQVTVSS	high polyreactivity
QVQLVESGGGLVQAGGSLRLSCAASGNIFLRYAMGWYRQAPGKERELVAAISYSGGGSTYYADSVKGRFTISRDNAKNTVYLQMNSLKPEDTAVYYCAKVLTSRTQFFDYDYWGQGTQVTVSS	low polyreactivity
QVQLVDSGGGLVQAGGSLRLSCAASGFIFHRYAMGWYRQAPGKERELVAAISSSGGSTYYADSVKGRFTISRDNAKNTVYLQMNSLKPEDTAVYYCAAYYHDGYEFNYWGQGTQLTVSS	high polyreactivity
QVQLVESGGGLVQAGGSLRLSCAASGRTFQYYAMGWYRQAPGKERELVAAITSGGSTYYADSVKGRFTISRDNAKNTVYLQMNSLKPEDTAVYYCAATFYYSGHDDYWGQGTQVTVSS	low polyreactivity
QVQLVESGGGLVQAGGSLRLSCAASGFTFFDYVMGWYRQAPGKERELVAAISSSGGSTNYADSVKGRFTISRDNAKNTVYLQMNSLKPQDTAVYYCAAEDFWDDVEYWGQGTQVTVSS	low polyreactivity
QVQLVESGGGLVQAGGSLRLSCAASGSTFRYYAMGWYRQAPGKERELVAAISKSGGRTYYADSVKGRFTISRDNAKNTVYLEMNSLKPEDTAVYYCAADCVARYQKGQYDYWGQGTQVTVSS	high polyreactivity
QVQLVESGGGLVQAGGSLRLSCAASGSTFPGNSMGWYRQAPGKEMELVAAIDTSGGSTYYADSVKWRFTISRDNAKNTVYLQINSLKPEDTAVYYCAADYLIEMDYWGQGTQVTVSS	low polyreactivity

Sequence	polyreactivity (PSR sort gate)
QVQLVESGGGLVQAGGSLRLSCAASGRTFAQNAMGWYRQAPGKERELVAAITASGSITYYADSVKGRFTISRDNAKNTVYLQMNSLKPEDTAVSYCAARGRYHFFSKYDYWGQGTQVTVSS	high polyreactivity
QVQLVESGGGLVQAGGSLRLSCAASGLTFTTYAMGWYRQAPGKERELVAAISRRGSRTYYADSVKGRFTISRDNAKNTVYLQMNSLKPEDTAVYYCNALTGSFKTYSFDYWGQGTQVTVSS	high polyreactivity
HVQLQERGGGLVQAGGSLRPSCAARGTISDGVPMGWYRQAPGEERELVATTVLGATTNYADSVKGRFTISRGNAKNTVYLQMNSLNPEETAVYYCAAPLRYDKGFSYWGQGTQVTVSS	low polyreactivity
QVQLVESGGGLVQAGGSLRLSCAASGIIFHKYAMGWYRQAPGTERELVAAISRSGGRTYYADSVKGRFTISRDNAKNTVYLQMNSLKPEDTAVYYCAARYLKPGGAYDSWGQGTQVTVSS	high polyreactivity
QVQLVESGGGLVQAGGSLRLSCAASGRTFGYYTMGWYRQAPGKEWELVATITRGGTTKYADSVKGRFTISRDNAKNTVYLQMNSLKPEDTAVYYCNARERGSRQYTFDYWGQGTQVTVSS	high polyreactivity
QVQLVESGGGLVQAGGSLRLSCAASGFIFGSYAMGWYRQAPGKERELVAAITSDGNTDYADSVKGRFTISRDNAKNTVYLQMNSLKPEDTAVYYCATDWVDHYDYWGQGTQVTVSS	low polyreactivity
QVQLVESGGGLVQAGGSLRLSCAASGSTFGGYALGWDRQAPGKDRELVAAISRSGGRTYYADSVKGRFTISRDNAQNTVYLQMNSLKPEATAVYDCYPYYIASTFDYWGHGTQVTVSS	high polyreactivity
QVQLVESGGGLVQAGGSLRLSCAASGSIFSNYAMGWYRQAPGKERELVAAITLSSGGTYYADSVKGRFTISRDNAKNTVYFQMNSLKPEDTAVYYCAAQYKYFIHRYYYWGQGTQVTVSS	high polyreactivity
QVQLVESGGGLVQAGGSLRLSCAASGRTFFYNGMVWYIQAPGKQRELVAAISGSGSRTYYADSVKGRFTISRDNAKNTVYLQMNSLKPEDTAVYYCAATRVISHYRFDYWGQGTEVTVSS	high polyreactivity
QVQLVESGGCLVQAGGSLRLSCAASGSTFSPYAMGWYRQAPGKERELVAGITGRGGRTYYADSVKGRFTISRDNAKNTVYLQMNSLKPEDTAVYYCAAKYYGNKRDLYYWGQGTQVTVSS	low polyreactivity
QVQLVESGGGLVQAGGSLRLSCAASGRTFYRNAMGWYRQAPGKERELVAAITSGGSTYYADSVKGRFTISRDNAKNTVYLQINSLKPEDTAVYYCAKRKGWVPSRSWTPAFWGQGTQVTVSS	low polyreactivity
QVQLVESGGGLVQAGGSLRLSCAASGRTFPSYTMGWYRQAPGKERELVAAISKSGGNTYYADSVKGRFTISRDNAKNTVYLQMNSLKPEDTAVYYCNADTYALGAAVIPGDEYWGQGTQVTVSS	low polyreactivity
QVQLVESGGGLVQAGGRLRLSCAASGSTFAINAMGWYRQAPGKERELVAAITWSGGSTYYADSVKGRFTISRDNAKNTVYLQMNSLKPEDTAVYYCNAKSYRHLLYIPYKYNYWGQGTQVTVSS	high polyreactivity
QVQLVESGGGLVQAGGSLRLSCAASGLIFYPNGMGWYRQAPGKERELVAAITYSDGSTYYADSVKGRCTISRDNAKNTVYLQMNSLKPEDTAVYYCTARWGYRRGYWGQGTQVTVSS	high polyreactivity
QVQLVESGGGLVQAGGSLRLSCAASGSTVRGYAKGWYRQAPGKERELGAAITWSGGTTYYADSVKGRFTISRDNAKTTVYLQMNSLKPEDTAVYYCAAQNWDSDPYDYWGQATQVTVSS	low polyreactivity
QVQLVESGGGLVQAGGSLRLSCAASGRIFSIYTMGWSRQAPGKERELVAAISASDGSTYYADSVKGRFTISRDNAKNTVYLQMNSLKPEDTAVYYCAIDTYPQKVTYGSFAYDYWGEGTQVTVSS	low polyreactivity
QVQLVESGGGLVQAGGSLRLSCAASGFTFRYYAMGWYRPAPGKERELVAGISWSGSRTYYADSVKGRFTISRDSAKNTVYLQMNSLKPEDTAVYYCAKVNSYGPVPDRYDYWGQGTQVTVSS	high polyreactivity
QVQLVESGGGLVQAGGSLRLSCAASGSIFSAYAMGWYRQAPGKERELVAAISDSGDSTYYADSVKGRFTISRDNAKNTVYLQMNSLKPEDTAVYYCAAESPKWGQGTQVTVSS	low polyreactivity
QVQLVESGGGLVQAGGSLRLSCASSRFNFRSYAMGWYRHPPGKERELVAAISRSGGSTYYADSVKGRFTISRDNAKNTVYLQMNSLKPEDTAVYYCAAEYRIPYFFTYGYWGQGTQVTVSS	high polyreactivity
QVQLVESGGGLVQAGGSLRLSCAASGRIFRDYVMGWYRQAPGKERELVAGITGSVDSTNYADSVKGRFTISRDNAKNTVYLQMNSLKPEDTAVYYCNAEFWRGTYRFGYWGQGTQVTVSS	low polyreactivity
QVQLVESGGGLVQAGGSLRLSCAASGSIFRGYAMGWYRQAPGKERELVAAITKRGGNTYYADSVKGRFTISRDNAKNTVYLQMNSLKPDDTAVYYCAKAGWGKWVYAQMDYWGQGTQVTVSS	high polyreactivity
